Experimental findings from the NTF2 design screens of Basanta et al. (2020) are described below.

The nature of this data set: protease stability score; higher = more stable; yeast display proteolysis, trypsin and chymotrypsin.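 Further: relative to predicted unfolded state with 0 unfolded-like and 1 meaning tenfold more protease.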
“DDDTREFEKWEKIWVEYYQTGNFDHLRRLIDPNVRSIVDGKEFHGREAMASMILEETKRADHIEMDLTRHEIIGEKMIIHSRIEIQVGDYHDHYRLELESIKVNGKWIVHRESYR” showed a protease stability score of 0.039.

“DDEDEEVKLIIEEELHLARTGDFERLLELHDPDVRIIFDGREWHGREALRWLYRHLGIDRIDLHFEDVRVINGRVEMDVTENINGRKIKSRIIARKYDGRWINEQVDIK” yielded a protease stability score of 2.28.

With “DDEDEHWETLARHFVDNYLTGDWKRLWEMLDPNARLNVNGKEYHGREVIIRVLRKELEDLGVDVVDVEDIRVYGNKVDFHMTVRVGDKERRLEIDVHIVDGRIRKIIIRID”, the protease stability score amounted to 2.2.

Sequence “DDEDHELEWMYRIMLRILETGDEDEYKKFADPNTRLLIDFNGRIIDDHGREHVKRSIFEWLEHARIRRKEKKTERHIDGRVILHMRMDVDVNGRRIDRDVLIIIVVINGKFREVDIQYR” came in with a protease stability score of 0.931.

“DDEDKRLETRARLWFEHFFTGDFEAMLWYLDPDTRLHINGREFHGMEHIVHHLEREILHLRVRIHLRRIKIFDGRLIIDIELEVHYGDKTHRTRAEIILIVVNGRIREIEVRES” registered a protease stability score of 1.5.

Sequence “DDEDREAQELLNLYLHAHRTGDEHLLDELVDPHARIIVNGQEIHGRDFLEYLKKFWGITNVNIDIHIDDLKLYDGRIEVETRLILEINGQRYTYSSHEHWHKVNGKWISKRVDFE” returned a protease stability score of 1.05.

Sequence “DDEDRHASKLYHIIVHLEVTGDFEKWRDYADPNVRIVIGDKEFHGRELFMEWLKEIRLERFRIKHIKVIGEKTNSTTSFEVNVNGVRIENDTRIHIHVIDGKVHSVHFEIR” gave a protease stability score of 1.57.

On to “DDEDRKKADEMLKALKHGDPDRVRELMDPNAKAVYGDKRIRGRDDFVEDMFRKQREIKIDMKIEEFRVNGNHAVFTVDVIEDKDGRPKRFKARVVITLHNGKIIDIKVEEEH”, for which the protease stability score is 1.49.

In the case of “DDEDRKLKHLIELLVHWFLTGDEDALKELADPNTKFDIGDKHYHGMEIVQEIWKRHLEEIRIQHVEIRHVEIQGNKTDITGELHGQIGDKHIRSEVRIHLNIINGRVRSMWFIIH”, the protease stability score is 2.49.

The sequence “DDEEDHVREMFKLHWDNLRTGDFDKWMNLADPNVRFRYIFNGVDFEYHGRDFVSQILLEIRIDRISIHHVNIFEGHSEIDAHEETTYNGKKTERKVHIELIVFNGRIHELHVEIR” had a protease stability score of 0.682.

Consider “DDEEDKAREAFKMLQELVNTGNEELLYQYFDPNYRLDVDGRQIHGREAVVNERRKRFEMWGVEQVRLHIDTWDIIGNKVKLDGHLNFNGVIKKTHIHLLKVNGRWVIESERIE”, for which the protease stability score worked out at 1.08.

Take “DDEEEDYERAFKIFIDFVKTGDWRLLKELADPNVRNVIGDKEFMGRETFTKWVFDVRAQFDHVEIRIRDFEIQGNKLILYTELHLHQGDKSLTLELRIVILKVNGKWLMHSFRLQ”: the protease stability score was 1.4.

In the case of “DDEEEEAKEMSEHTLQWFFTGDEEKLYKYIDPDVRVRVLIDGRELVYHGREVFLEFLKRQIEELGIDHVHLRRRHVIDGVLEVHGTINVDGREIELIIFADKYNGRWRLKLIEINVR”, the protease stability score amounted to 1.69.

In the case of “DDEEEEEEKFRKILEEALETGDERILHHFADPHVQTHFNGQTFHGREEWIKILRKLGVERVHLNIKRVEVYGDKIHIDGELHFDGRTHKVELVALKVDGRWLLHKIVIR”, the protease stability score is 1.68.

“DDEEEESEHAVKFWKHAQETGDFDEMRRLADPNVKVEIGDKELHGRKDFTRLLREHKEKLGVERIEVFIHDMHPINGRVTVHVIIEYNGQRQWFHVIFLKINGRWFIESMHIT” came in with a protease stability score of 0.378.

Regarding “DDEEEFIRKLFEDFYRAFLTGDWHELFELMDPNTRTEINGVHFHGRHIISEYLVTHIERVDHVSITLTRLDKIGDYLIIDSHLRQDVNGKKIHVRLHMHAHKIDGRWKIHRFEFE”, the protease stability score is 1.34.

“DDEEEIFKKAIEDFIRWERTGDWRQLVENLDPNTRVDVNGVYIHGRERIAEWIKHHIERVKNVKHHKHDEKVQGDKLHLDGVIIIDGVRFDVHLIIVVINGQYKHHEVRIR” came in with a protease stability score of 1.17.

“DDEEEILKEFVRIFREVWLTGDFHALLRLADPNVRQELHVNGREIHNHGREAMSDWHHFMRKFFKGMTIIEHTSYLIDGRIHIEGTWSFDGVDFRTHIHQVVIDGRIEHVQLTIH” displayed a protease stability score of 0.177.

The sequence “DDEEEINRRIAETFINNVKTGDEHSMREMMDPNTRLIVGDKHNHGWKEVEKFWREWRRHAGVDHIHVDDVRVIGNKVEIDETINQGDKFRDVRISIITINGRITELRIEIR” had a protease stability score of 1.49.

For “DDEEEVAERAARIVHHLYLTGNPEELLKYFDPDVRWIFNGKTSIGRENVVEMFDDVHRMFGIDVRTSDINSYDIVDGRIEVDSRLHLHINGRKINHHFRIESIKINGRWWLKRIDID”, the protease stability score was 0.933.

For the sequence “DDEEHASRNAYRILKRVVETGDWREFRKMMDPDARVLINGVQLHGREAVHHLLERVDHLHDIELRHIHTQGNKIHIEISVDGLIDGQKTETERRILVTKFNGRWKVEQIEIG”, the protease stability score stood at 0.628.

Sequence “DDEEHDARRAVELHNEIERTGDEHEMHRFADPDVRIFIGDKELHGRETWSKYLSHVLERLGINHLHITIEHLHLQGNKMRLHGTIRMKIGDKRYEIHVEVYITKINGRWHLHTIRND” gave a protease stability score of 0.363.

In turn, “DDEEHEARLAVHELREVQRTGDERQLHELIDPDTRFEFPGVTLHGRENMVEWLARIKNLRVESIHERHISIYNGQVDFDMEMHVRDGNKHRTEKWRIIMYKFDGRWSIKSFESR” registered a protease stability score of 0.961.

With “DDEEHEARRVLEELIRVWITGNEELEDRLMDPNVRFVYGEYDLHGMEHFRHLLTVLKDQADHVSDVKLHDLEIQGDKVITRSVVDGVFNGRRFHRSQIIILIKVNGKWRIKSLHIH”, the protease stability score is 1.33.

“DDEEHSAENFARHFMENLRTGDEDRLHELADPNMQIILHFDGQHEVRHGWESYEYLVRLFGVKHIHINHFEIFYVNGRVHLRIEGHIHQGDKYREVYIHIDINKVNGRWHVESVELRIH” registered a protease stability score of 0.93.

As to “DDEEKEDKDAIKLLVKFWETGDWENISRMMDPHVRLEVGEFTYHGREHFSRLYLEQYERVDHIQFRIHHLEVVGDKMTADTEVHIDINGRHIRLRTHINMIKINGRWRLHSVLIN”, the protease stability score is 1.48.

“DDEEKEHLEMLKQFWENSYTGDERTLLHLLDPHARFILEFNGKSLQYHGREEVARFLRWLLEHIRVKDSHIHDIDVIGEKAVVDGRMHGEIDGREVEKETRLFIVVIDGRITKVFIEVR” displayed a protease stability score of 1.6.

Turning to “DDEEKETEDFLRLLIEFLLTGDEERLKDLLDPNTRLEYGEFDFVGREHVLEWRHHYRKILGAKHRELRIEHLHVIDGRVNAISRVHLRFDGREYSHETIIIIEKVNGKWLLHSEEIR”, the protease stability score stood at 1.33.

“DDEEKEVKILTEIWWKSVRTGDEEFWDRLADPHTRLEILINGRTHEFHGMDEYNRILHHLRIEDRRTRSINNIDGKAQIDGFLVFRINGRSFETKVEVNISVVNGKVKHHKIIIE” yielded a protease stability score of 1.3.

“DDEEKHAHDILRLLFWVLMTGDEEIIRELFDPNVRVHIGDKEIHGWKELSRHTKEMRHHVRDTDEKDRRSDEDEIRLHGELDGELHFDGKRVKHRMDIHIIAVKIDGRWFFKSLYVR” showed a protease stability score of 0.868.

As for “DDEEKLSKDASELWKKSMLTGDEDTLMKLADPHTRLEIRIGDKTDEIHGMEWVAHLLTNLGIDHFILRDEHIQGEKVIIRGEIDINGRTHESIIIVIIINGRLKSVTFIKL”, the protease stability score came out at 0.94.

In turn, “DDEEKMFVHLAKLFTDIMTTGDEKFLDELVDPNVRFDVNGRLRVGREELKKAIQDWWREIRVDEILIHEIDVIDGRLRMDGRMRGDIDGQETYLELHIILHVIDGRMTHVEIRHQ” gave a protease stability score of 2.38.

With “DDEEKRIQEASREMLEIMRTGDEERLKQMADPNARWHTKIDGQEVHRHGREEFIKIFRWVMERLGIDHVELHSIHIYNGQNDIDSRFHFDGRNHRILFIWVVYNGRLHHVRIEIQ”, the protease stability score is 1.58.

With “DDEEKRYRLFYKIALTMFETGDWQILHELADPHVKVRVGDKDLHGREELTHFWKELVERYPNMKIRLDDLSLQGEKIHIEGTWHFDGKELTTHIDLIMVDGKLKETRYEHK”, the protease stability score was found to be 1.4.

Sequence “DDEEKSRDIAIEIFVHLLRTGDEHEMSKLADPHVKVNINGRELVGMEIFIEWIRRWSKEIRLHDVKVKDVRTQGDKIEVDGREDGIQGDKRKEVETSFFFRKYNGKWFIERMEFR” returned a protease stability score of 1.96.

Turning to “DDEEKYFRMAVHHIIHLLHTGDETDSEHQADPDVRITVGDKRFHGREDFRDWVRELTDRYKNMTFRLKSVDVQGDFIILHGLLHFNGKNVEFDVFSWKFNGKWFMHHIIVR”, the protease stability score was determined as 1.72.

In turn, “DDEERANRELLELLIHSYRTGDWKLWHELVDPHVRTSLHQGEFEMKSIGRHYVRDIMTYMGVDHVELRHLEIQGDKLIMHLELDVNGRRLHVILFLSKINGVWILREEEIRFI” yielded a protease stability score of 1.3.

On to “DDEERDLKRAYELWVHNMLTGNWRMLNYLADPNTKIEFENHKSHGRESLHELLKRLGVDHMHIELEDMHFVGDKIILHTREEHRVGDKEIRTEVHIDARKINGRWRLQSVHFR”, for which the protease stability score was 0.97.

For “DDEERDVLRIMRIVLKLWKTGNEEKYEHLLDPDVRMEVDGRNLHGRETVSHWLHRLREEIRIDDYKIETVRAQGNKSILHVRTDGIINGQEVRLTEEITIIVINGRIQTFSIHRH”, the protease stability score was determined as 0.628.

Turning to “DDEEREVHKATEDWFKLVKTGNEEVRHELLDPHTRLIIGDKEFHGREELLRWERELGYKFKTFIITDIKVQGNKAIIHGVDVGTINGVERHLDVRLLILKVNGKWITREIEVR”, the protease stability score came to 1.62.

With “DDEERHASTIFELLMEVILTGDEDTFEELADPNTRFDINGREFHGREYMSHLKTQYDHWYLKHMHITSSEVQGNFAILNSETDYELEYGDKRVSFYERWHLFVLKVDGRWIIHSFRIN”, the protease stability score was found to be 0.985.

Sequence “DDEERIASFVIKMWLHSYLTGDENLLREFLDPNVKVRNEVNGRDWTHHGREALLWLLEFLGVKHVEHVRLHDLLVVNGRATSREIYHGKIGDKRTTFHFTLYIIRIDGVVKKFEIELE” gave a protease stability score of 1.3.

In turn, “DDEERILHRIKELFEAAMHTGDWRLEFQQADPHTRVEIGDKEIHGMENIFDMLEDFWRELGIDQIDVEVRDEDSHIQGDKIILHVDITLRYNGVQERFKSTIILQKIDGRWHKKTEHRG” displayed a protease stability score of 1.16.

In turn, “DDEERIWRELLEDLLKALKTGDEHRIQDLLDPHVRLEIGDKEFHGREEVTEWFRRLMEKIKGAVFHIHIHDFRIQGDKLLADTRLIIHIGDKHEESETEMIVLKVNGRWLIDEIRVK” returned a protease stability score of 2.59.

As for “DDEERIWRELLEIWIKLMETGDEDTTRKNADPHAKHILVIGDFTLVLHGWDLTVKFLKELSERMGINHIHVHRVEAINGQVHIDSRLRVGDKDVHTHIRIKIVDGVLKETNLHIK”, the protease stability score was 1.62.

In the case of “DDEERLIKHLAERWMKDLHTGNEDSLEEMADPNWRLRQIVNGQEVRDIGREKMIEVIREIEKKLGIDRIELHVHKVEIQGDKAHLNTEIRYNGQSSLHEIRLTIINGRLHSVTIHVK”, the protease stability score was 0.85.

On to “DDEERQAREFLKNYIRSLLTGDEDTLDELVDPNARWHVGDYHMIGRDSVSFLTKHLRIKHIEIKDIEIYGNKAIVLVHMHGIIDGKERDTDIIIFVEKINGQWKVREHRIS”, for which the protease stability score stood at 1.15.
